Patent US20260232732A1 (FUNDACI INSTITUT DE RECERCA CONTRA LA LEUC MIA JOSEP …, published 2026)
Where no end group is shown, it is not given here. The star is where a group is joined. Biotin = O=C1N[C@H]2[C@H](CS[C@H]2CCCCC(=O)*)N1

Legend:
[1] = molecular target: T1, biotin-peptide SMEDYVNFNF (human); assay: ELISA biotin-peptide; scFv 2.5 ug/mL; repII
T1 peptide: Biotin-SMEDYVNFNF
Description: (§1) The peptides were synthesized naked or with a N-terminal Biotin modification with a purity of >98%. All four scFvs were verified by ELISA that can be detected with anti-His antibodies. ELISA was performed for scFv-peptide binding validation. Briefly, naked peptides were coated (50 μg/mL) in 0.58M carbonate-bicarbonate buffer pH9.5, 100 μL/well, 4° C. O/N. Then after blocking (3% BSA-PBS, 300 μL/well 37° C. 1.5 h) and washing (PBS+Tween-20 0.05% v/v (0.05% PBST), wells were incubated with each purified scFv antibody at concentration of 1 μg/mL in PBS at 37° C. 1 h. After washing (0.05% PBST), wells were incubated with secondary antibodies (goat anti-His IgG-HRP) in PBS, 37° C., 30 min. After washing, and incubation with TMB substrate, reactions were stopped with 2M HCl and reading was quantified at OD450.
(§2) ELISA with biotin-conjugated peptides (5 μg/mL) was performed very similar to described above with minor modifications.
(§3) A full curve ELISA was performed for each positive scFv/biotin-peptide pair in order to confirm previous results. Tables 15-17 show ELISA results of the dose-dependent full curve for each positive peptide with scFv “CCR9_HUM”, “Comp-2” and “Comp-3”, respectively.

[2] = molecular target: T2, biotin-peptide TSSMEDYVNF (human); assay: ELISA biotin-peptide; scFv 0.625 ug/mL; repI
T2 peptide: Biotin-TSSMEDYVNF
Description: as §1, §2, §3

[3] = molecular target: T3, biotin-peptide SSMEDYVNFN (human); assay: ELISA biotin-peptide; scFv 0.625 ug/mL; repI
T3 peptide: Biotin-SSMEDYVNFN
Description: as §1, §2, §3

[4] = molecular target: T1, biotin-peptide SMEDYVNFNF; assay: ELISA biotin-peptide; scFv 0.625 ug/mL; repI
Description: as §1, §2, §3

[5] = molecular target: T4, biotin-peptide MEDYVNFNFT (human); assay: ELISA biotin-peptide; scFv 0.625 ug/mL; repI
T4 peptide: Biotin-MEDYVNFNFT
Description: as §1, §2, §3

[6] = molecular target: T5, Peptide 3-BSA (SSMEDYVNFN-C conjugated to BSA) (human); assay: ELISA; Ab 0.125 ug/mL; repI
T5 peptide: SSMEDYVNFNC(BSA)
Description: (§4) In brief, plates with each non-conjugated peptide (50 μg/mL) or BSA-conjugated peptide (5 μg/mL) were coated in 0.58M carbonate-bicarbonate buffer pH9.5, 100 μL/well, at 4° C. […] After washing, wells were incubated with the 3, 3′,5,5′-Tetramethylbenzidine (TMB) HRP substrate and reactions were stopped with 2M HCl and OD450 was recorded.

[7] = molecular target: T6, Peptide 4-BSA (SMEDYVNFNF-C conjugated to BSA) (human); assay: ELISA; Ab 0.125 ug/mL; repI
T6 peptide: SMEDYVNFNFC(BSA)
Description: as §4

[8] = molecular target: T7, Peptide 1, non-conjugated (MADDYGSEST-C) (human); assay: ELISA; Ab 0.125 ug/mL; repI
T7 construct: With the extra C-terminal Cys
T7 peptide: MADDYGSESTC
Description: as §4

[9] = molecular target: T8, Peptide 2, non-conjugated (GSESTSSMED-C) (human); assay: ELISA; Ab 0.125 ug/mL; repI
T8 construct: With the extra C-terminal Cys
T8 peptide: GSESTSSMEDC
Description: as §4

[10] = molecular target: T9, Peptide 3, non-conjugated (SSMEDYVNFN-C) (human); assay: ELISA; Ab 0.125 ug/mL; repI
T9 construct: With the extra C-terminal Cys
T9 peptide: SSMEDYVNFNC
Description: as §4

[11] = molecular target: T10, Peptide 4, non-conjugated (SMEDYVNFNF-C) (human); assay: ELISA; Ab 0.125 ug/mL; repI
T10 construct: With the extra C-terminal Cys
T10 peptide: SMEDYVNFNFC
Description: as §4

[12] = molecular target: T11, BSA (negative control coating) (bovine, UniProt P02769 25-607); assay: ELISA; Ab 0.125 ug/mL; repI
T11 construct: also called Negative control BSA
T11 sequence (P02769 25-607 limits assumed): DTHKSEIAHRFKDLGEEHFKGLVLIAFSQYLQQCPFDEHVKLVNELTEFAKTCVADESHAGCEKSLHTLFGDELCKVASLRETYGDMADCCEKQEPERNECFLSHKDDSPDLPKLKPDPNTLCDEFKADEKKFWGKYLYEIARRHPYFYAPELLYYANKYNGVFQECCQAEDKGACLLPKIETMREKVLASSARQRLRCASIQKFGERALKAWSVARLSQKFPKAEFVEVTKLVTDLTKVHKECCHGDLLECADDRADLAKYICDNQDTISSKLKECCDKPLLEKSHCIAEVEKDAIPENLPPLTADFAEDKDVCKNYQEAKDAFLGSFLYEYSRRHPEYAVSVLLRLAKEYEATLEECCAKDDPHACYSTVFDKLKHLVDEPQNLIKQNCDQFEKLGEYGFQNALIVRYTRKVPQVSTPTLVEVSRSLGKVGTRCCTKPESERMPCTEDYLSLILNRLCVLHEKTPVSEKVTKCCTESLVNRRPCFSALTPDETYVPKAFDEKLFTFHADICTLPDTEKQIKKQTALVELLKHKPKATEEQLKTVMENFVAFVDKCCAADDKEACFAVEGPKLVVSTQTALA
Description: as §4

[13] = molecular target: T12, antigen peptide-BSA (immunisation peptide #1 MADDYGSESTSSMEDYVNFNF-C conjugated to BSA) (human, extra C-terminal Cys conjugated to BSA); assay: ELISA; Ab 0.125 ug/mL; repI
T12 construct: also called Positive control antigen peptide-BSA; MADDY peptide
T12 peptide: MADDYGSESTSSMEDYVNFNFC
Description: as §4

[14] = molecular target: T13, Peptide 1-BSA (MADDYGSEST-C conjugated to BSA) (human); assay: ELISA; Ab 0.125 ug/mL; repI
T13 peptide: MADDYGSESTC(BSA)
Description: as §4

[15] = molecular target: T14, Peptide 2-BSA (GSESTSSMED-C conjugated to BSA) (human); assay: ELISA; Ab 0.125 ug/mL; repI
T14 peptide: GSESTSSMEDC(BSA)
Description: as §4

[16] = molecular target: T5, Peptide 3-BSA (SSMEDYVNFN-C conjugated …); assay: ELISA; Ab 0.0625 ug/mL; repII
Description: as §4

[17] = molecular target: T6, Peptide 4-BSA (SMEDYVNFNF-C conjugated …); assay: ELISA; Ab 0.0625 ug/mL; repII
Description: as §4

[18] = molecular target: T7, Peptide 1, non-conjugated (MADDYGSEST-C); assay: ELISA; Ab 0.0625 ug/mL; repII
Description: as §4

[19] = molecular target: T8, Peptide 2, non-conjugated (GSESTSSMED-C); assay: ELISA; Ab 0.0625 ug/mL; repII
Description: as §4

[20] = molecular target: T9, Peptide 3, non-conjugated (SSMEDYVNFN-C); assay: ELISA; Ab 0.0625 ug/mL; repII
Description: as §4

[21] = molecular target: T10, Peptide 4, non-conjugated (SMEDYVNFNF-C); assay: ELISA; Ab 0.0625 ug/mL; repII
Description: as §4

[22] = molecular target: T11, BSA (negative control coating); assay: ELISA; Ab 0.0625 ug/mL; repII
Description: as §4

[23] = molecular target: T12, antigen peptide-BSA (immunisation …); assay: ELISA; Ab 0.0625 ug/mL; repII
Description: as §4

[24] = molecular target: T13, Peptide 1-BSA (MADDYGSEST-C conjugated …); assay: ELISA; Ab 0.0625 ug/mL; repII
Description: as §4

[25] = molecular target: T14, Peptide 2-BSA (GSESTSSMED-C conjugated …); assay: ELISA; Ab 0.0625 ug/mL; repII
Description: as §4

B1: CCR9_HUM2 scFv (humanized anti-CCR9 scFv, SEQ ID NO: 17 with C-terminal 6xHis tag) (scFv)
scFv: QVQLVQSGAEVKKPGASVKVSCTASGYSFTDYIIYWVKQAHGQSLEWMGYIDPNNYNTRYSQKFQGKVTITVDKSSTSAYMELNSLTSDDTAVYYCARDVYWGQGTTVTVSSGGGGSGGGGSGGGGSGGGGSDVVMTQTPLSLSVTPGQPASISCRSSQSLVHSNGKTYLQWYLQKPGQSPKLLIYKVSNRFSGVPDRFSGSGSGTDFTLKISRVEAEDVGVYFCAQSTHVWTFGGGTKVEIKRAHHHHHH
[1]
  OD450: 1.77 OD
[2]
  OD450: 0.78 OD
[3]
  OD450: 1.73 OD
[4]
  OD450: 1.71 OD
[5]
  OD450: 1.53 OD

B2: anti-CCR9 antibody clone 115 (murine, from hybridoma #115) (antibody, V domains shown)
VH: QVQLKQSGPELVKPGTSVRVSCTASGYSFTDYIIYWVKQSHGRSLEWIGYIDPNNYNTRYSQKFKGKATLTVDKSSTSAFMHLNSLTSDDSAVYYCARDVYWGQGTTLTVSS
VL: DVVMTQTPLSLTVSLGDQASISCRSSQSLVHSNGKTYLQWYLQKPGQSPKLLIYKVSNRFSGVPDRFSGSGSGTDFTLKISRVEAEDLGVYFCAQSTHVWTFGGGTKLEIKR
notes: Mouse IgG1
[6]
  OD450: 1.97 OD
[7]
  OD450: 2.23 OD
[8]
  OD450: 0.01 OD
[9]
  OD450: 0.01 OD
[10]
  OD450: 1.77 OD
[11]
  OD450: 1.69 OD
[12]
  OD450: 0.01 OD
[13]
  OD450: 2.15 OD
[14]
  OD450: 0.02 OD
[15]
  OD450: 0.01 OD
[16]
  OD450: 1.78 OD
[17]
  OD450: 2.01 OD
[18]
  OD450: 0.01 OD
[19]
  OD450: 0.01 OD
[20]
  OD450: 1.67 OD
[21]
  OD450: 1.19 OD
[22]
  OD450: 0.01 OD
[23]
  OD450: 2.08 OD
[24]
  OD450: 0.01 OD
[25]
  OD450: 0.01 OD
